Experimental findings from publication PMC9926490, “Structural Basis for Cyclosporin Isoform-Specific Inhibition of Cyclophilins from Toxoplasma gondii” (ACS Infectious Diseases, 2023) are described below.

As usually defined, the stoichiometry N is a count of units in the complex or per binding partner. The Km is the substrate concentration at which the rate is half of its maximum. What is called kcat is the maximal rate divided by the concentration of active sites. What is called kcat/Km is the turnover number divided by the Michaelis constant.

The target in one data set is cyclosporin A (CsA). The experiment in a line: ITC.
Data set [1] relates to C[C@H](NC(=O)CCC(=O)O)C(=O)N[C@@H](C)C(=O)N1CCC[C@H]1C(=O)N[C@@H](Cc1ccccc1)C(=O)Nc1ccc([N+](=O)[O-])cc1. The experiment in a line: purified protein, by the assay type. It counts as biochemical, Toxoplasma gondii. Conditions: other: substrate AAPF, 0 °C, pH 8.0.
Method: A trans-isomer is formed by Cyp, which is selectively cleaved by chymotrypsin, producing 4-nitroaniline, a yellow-colored product that can be measured spectrophotometrically.
The assay was performed in 50 mM Hepes, pH 8, and 100 mM NaCl at 0 °C. […] Once the temperature reached 0 °C, chymotrypsin solution, dissolved in HCl 1 mM, was added at 1.8 mg mL^–1 to start the reaction.
Successively, Cyp was added in large excess to enhance the cis-to-trans isomerization. The cis population was estimated by the difference between the final and the initial absorbance.
For all of the experiments, the slope of the catalyzed reaction was corrected for the spontaneous thermal cis–trans isomerization in the presence of the only chymotrypsin.
All measurements were repeated as triplicate, and the error was calculated as the mean standard error of the three measurements. The error associated with the parameter kcat/Km was propagated in agreement with the following equation eq 1 [drawing 1]
In data set [2] the target is human cyclophilin A (CypA) (human) (UniProt P62937).
Data set [3] relates to C[C@H](NC(=O)CCC(=O)O)C(=O)N[C@@H](C)C(=O)N1CCC[C@H]1C(=O)N[C@@H](Cc1ccccc1)C(=O)Nc1ccc([N+](=O)[O-])cc1. Nature of the data set: purified protein, by the assay type. Conditions: other: substrate AAPF, 0 °C, pH 8.0.

Sequence of human cyclophilin A (CypA) (human) (P62937 whole entry): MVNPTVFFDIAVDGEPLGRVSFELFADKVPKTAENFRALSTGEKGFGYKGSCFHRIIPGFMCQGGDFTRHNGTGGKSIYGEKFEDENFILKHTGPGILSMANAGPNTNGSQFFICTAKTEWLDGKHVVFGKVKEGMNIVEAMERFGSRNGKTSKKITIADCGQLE

“TgCyp18.4 (TgCyp289250), cyclophilin from Toxoplasma gondii (enzyme)” displayed a stoichiometry N in the data set with cyclosporin A (CsA) of 1.
With TgCyp23 (Toxoplasma gondii VEG), in data set [1], the Km came to 530 ± 97 µM, the kcat stood at 2010 ± 381 s⁻¹ and the kcat/Km came out at 3.8e+06 ± 200000 M⁻¹ s⁻¹.
Consider “TgCyp23 (TgCyp285760), cyclophilin from Toxoplasma gondii (enzyme)”, for which, in the data set with cyclosporin A (CsA), the stoichiometry N was 1.
cyclosporin A (CsA) (peptide): the IC50 of CsA on PPIase activity (7 nM enzyme, AAPF substrate, chymotrypsin-coupled assay, 0-30 nM CsA) in data set [2] turned out to be 1 nM.
CypA (Homo sapiens): in data set [3], the Km stood at 661 ± 93 µM, the kcat worked out at 3290 s⁻¹ and the kcat/Km was 4.9e+06 M⁻¹ s⁻¹.
